For experiment [1], the target named is T1, OspA serotype 2 (B. afzelii PKo allele) on B. burgdorferi HB19-R1 reporter strain (Borreliella afzelii PKo allele, in B. …, UniProt P0A3N7).
T1 construct: OspA serotype 2, allele of B. afzelii PKo; also called OspAST2; OspA ST2; source: expressed from a reporter plasmid in B. burgdorferi HB19-R1, on live cells
Briefly: flow cytometry on cells; live B. burgdorferi HB19-R1 reporter strains expressing OspA ST1-7 probed with 10 µg/ml mAb, then Alexa 647-labeled goat anti-human IgG. Particulars: one partner purified.

Experiment [2] deals with T2, OspA serotype 3 (B. garinii PBr allele) on B. burgdorferi HB19-R1 reporter strain (Borreliella garinii PBr allele, in B. …, UniProt B8F1J0, strain).
T2 construct: OspA serotype 3, allele of B. garinii PBr; also called OspAST3; OspA ST3; source: expressed from a reporter plasmid in B. burgdorferi HB19-R1, on live cells
The description is as above. Particulars: one partner purified.

For experiment [3], the target named is T3, OspA serotype 4 (B. bavariensis PBi allele) on B. burgdorferi HB19-R1 reporter strain (Borreliella bavariensis PBi allele, in …, UniProt Q6LBF1, strain).
T3 construct: OspA serotype 4, allele of B. bavariensis PBi; also called OspAST4; OspA ST4; source: expressed from a reporter plasmid in B. burgdorferi HB19-R1, on live cells
The description is as above. Particulars: one partner purified.

Experiment [4] concerns the target T4, Native OspA serotype 3 on B. garinii PBr cells (Borreliella garinii PBr, UniProt B8F1J0, strain).
T4 construct: OspA serotype 3 of B. garinii PBr, native on the bacterial surface; also called native OspA ST3; source: endogenous, B. garinii PBr cells
Briefly: flow cytometry on cells; native Bbsl strains (primary isolates, ST1-7) probed with mAb. Particulars: one partner purified.

The target of experiment [5] is T5, Recombinant OspAST1 (residues 18-273) from B. burgdorferi B31 (Borreliella burgdorferi B31, UniProt P0CL66).
T5 construct: Outer surface protein A (OspA) serotype 1, B. burgdorferi B31, residues 18 to 273; Used for the crystal structures; also called OspA (18-273); outer surface protein A serotype 1; not shown: His10, N-terminal, cleaved; SUMO, N-terminal, cleaved
Briefly: BLI; Octet RED96e; mAb captured on AHC sensors, three-fold dilution series of OspA (21.58 nM to 0.089 nM); PBS, 0.1% BSA, 0.01% Tween20; global 1:1 model. Particulars: both partners purified.

For experiment [6], the target named is T6, Recombinant OspA serotype 1 (provided by Moderna) (Borreliella burgdorferi, strain not …, UniProt P0CL66).
T6 construct: OspA serotype 1; also called recombinant OspA ST1; ST 1; source: E. coli, purified; provided by Dr. Meredith Finn (Moderna)
T6 sequence (P0CL66 17-273): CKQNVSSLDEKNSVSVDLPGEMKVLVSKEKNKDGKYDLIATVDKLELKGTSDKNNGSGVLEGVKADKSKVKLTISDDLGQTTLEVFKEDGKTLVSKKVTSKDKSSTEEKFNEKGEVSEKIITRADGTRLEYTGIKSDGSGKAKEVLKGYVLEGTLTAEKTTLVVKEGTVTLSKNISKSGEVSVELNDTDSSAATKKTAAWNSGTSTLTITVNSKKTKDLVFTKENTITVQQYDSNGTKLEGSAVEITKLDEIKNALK
Briefly: microsphere immunoassay (MIA); recombinant OspA ST1-7 coupled to Magplex-C microspheres; serial dilutions of mAb in PBS, 2% BSA, pH 7.4, 1 h at room temperature; PE goat anti-human IgG Fc. Particulars: both partners purified.

T1 sequence (P0A3N7 17-273): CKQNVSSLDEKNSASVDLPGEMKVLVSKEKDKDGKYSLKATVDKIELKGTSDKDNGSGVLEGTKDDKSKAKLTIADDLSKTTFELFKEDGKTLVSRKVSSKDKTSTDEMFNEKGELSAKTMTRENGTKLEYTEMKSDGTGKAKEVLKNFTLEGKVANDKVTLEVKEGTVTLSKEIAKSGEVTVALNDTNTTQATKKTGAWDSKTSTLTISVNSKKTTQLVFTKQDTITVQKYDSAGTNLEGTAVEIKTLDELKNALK

B1: 857-2, recombinant human monoclonal IgG1 (antibody, V domains shown)
VH: EVQLVQSGEEVKKPGESLKISCKGSGYKFSSYWIGWVRQMPGKGLEWMGIIFPGDSDKRYSPSFQGQVTISADKSISTVYLQWSSLKASDTAMYYCARHITTHTYRGFFDFWGQGTLVTVSS
VL: AIQLTQSPSSLSASVGDRVTITCRASQDISSALAWYQQKPGKAPKLLIYDVSSLESGVPSRFSGSGSGTDFTLTISSLQPEDFATYYCQQFNGYPHRLTFGGGTKVEIK
notes: rest human IgG1 constant region; IgG1; VH germline HV5-51, VL germline KV1-13; also called mAb 857-2; Class I Bin 1 mAb; source: Expi293, transiently transfected with VH and VL plasmids, purified (Protein A)
B1: the MFI in experiment [1], in experiment [2] and in experiment [3] was greater than 4000 in each case. The binding result in experiment [4] is on record as “binds”. In addition, the Kd in experiment [5] stood at 0.3 nM.

B2: 221-11, recombinant human monoclonal IgG1 (antibody, V domains shown)
VH: EVQLVQSGAEVKKPGESLKISCQSSGYRFTIYWIGWVRQMPGKGLEWMGIIWPGDSDTRYSPSFQGQVTISADKSISTAYLQWSSLKASDTAMYYCVRGIGRYSNWFLDYWGQGTLVTVSS
VL: AIQLTQSPSSLSASVGDRVTITCRASQGFSSALAWYQQKPGKAPKLLIYDASSLESGVPSRFSGSGSGTDFTLTISSLQPEDFATYYCQQFNSYPLTFGGGTKVEIK
notes: rest human IgG1 constant region; IgG1; VH germline HV5-51, VL germline KV1-13; also called Class II Bin 1 mAb; source: Expi293, transiently transfected with VH and VL plasmids, purified (Protein A)
In the case of B2, the binding result in experiment [2] is “binds”. In addition, the dissociation constant (Kd) in experiment [5] was found to be 0.35 nM.

B3: 227-1, recombinant human monoclonal IgG1 (antibody, V domains shown)
VH: EVQLVQSGAEVKMPGESLKISCEVSGYSFTSYWIGWVRQMPGKGLEWMGIIYPGDSDTRYSPSFQGQVTISADKSISTAYLQWSSLKASDTAMYYCTRSISRSGPGFSLSWFFDYWGQGTLVTVSS
VL: AIQLTQSPSSLSASVGDRVTITCRASQGISNALAWYQQKPGKAPKLLIYDASSLERGVPSRFSGSGFGTDFTLTISSLQPEDFAIYYCQQFNGFPNTFGQGTRVEIK
notes: rest human IgG1 constant region; IgG1; VH germline HV5-51, VL germline KV1-13; also called Class III Bin 1 mAb; source: Expi293, transiently transfected with VH and VL plasmids, purified (Protein A)
Regarding B3, in experiment [5], the Kd was found to be 1.7 nM.

B4: 221-5, recombinant human monoclonal IgG1 (antibody, V domains shown)
VH: EVQLVQSGAEVKKPGESLKISCKGSGYSFTSYWIGWVRQMPGKGLEWMGIIYPGDSDTRYSPSFQGQVTISADKSISTAYLQWSSLKASDTAMYYCARHLGIDYFFGMDVWGQGTTVTVSS
VL: EIVLTQSPATLSLSPGERATLSCRASQSVSSYLAWYQQKPGQAPRLLIYDASTRDTGIPARFSGSGSGTDFTLTISSLEPEDFAVYYCQHHSNWYTFGQGTKLEIK
notes: rest human IgG1 constant region; IgG1; VH unmutated from germline HV5-51, VL derived from KV3-11; also called Class I Bin 1 mAb; source: Expi293, transiently transfected with VH and VL plasmids, purified (Protein A)
Regarding B4, the MFI in experiment [1], in experiment [2] and in experiment [3] was greater than 4000 throughout. Moreover, the binding result in experiment [6] is reported as “binds”. In experiment [5], the Kd came out at 0.52 nM.

(Values after paper doi:10.64898/2025.12.24.696337, “A Broadly Conserved Protective Epitope on the Lyme Disease Vaccine Antigen, OspA” (bioRxiv, 2025).)
